Assay results as given in the domain aggregation screens of Martell et al. (2025).

Experiment: soluble fraction after stress (log2 fold change); higher = more stays soluble; pooled small domains, quantitative proteomics
Details: stress: 75 degC
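Note: 20 min heating vs room temperature control held 20 min.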

Sequence	soluble fraction (log2)
HMRTIGDSVYEKIKYDIVHLTLKPGEKLSEASLAEKYGISKAPIRVALRKLQEEGLIVIRPQSGSIVSP	-1.19
HMRTMRHLSVPRQETQQILSQLKAEFALPQGARVQPDPSDSKRTLIPVKEGAESELLSRYPVVHAEP	0.0613
HMRTNNEITSYKLKSGKKRWKFQTYLGLDDKGQKVSVTRQGFRTYNEAISEYNKLRAQGTQGYQ	-0.948
HMRTPTGVQAYLSSGLIKGIGEKTAAAIVDKFGTDALSVIETDPERLLEIPGITPNKLREILESYNQH	0.204
HMRTVAERYGLTAGQWRVLELLTQGKTNRQIAEMLDVTEGTVKIHVSAIFKAMKVTNRTQALLLAKKH	-1.28
HMRTYDPQAVELNNKALELINQGRLDSALLVYDQSIKTDKTYYFPHIGKSIIYMRKKDWNKAFEETQQAIK	0.493
HMRVDLATEVHSVLRRMMSRPPTLQEIRADLDGEEPGRVHEALDALRAAFRGGRGPKNPYESLKRSLRRG	-0.636
HMRVDLVQRLARHGLSPRQSAVAGGVLRGLDNGEISRQLYIAEQTVKDHLHEIYHRLGVHTRTELLIKVLG	-2.22
HMRVGISRNSGAAGIAVWLTQKLGRPVAKTEEIVHILKNWVDDQYEAGRVTNIGDGELWSVYKQMEAEE	-0.953
HMRVTEIDYGAFMKMIEEKNIGEVKVEDYEIVFTDKDNKNIYKTGIMDDPDLTQRLYNSGAVFA	0.0318
HMRWGDPLTVKVPSFIGQTKDDIAKQHYPFRIEWHGEGAKIGSQLPEVDSVIKQDGTIHLYLV	-0.0635
HMRYFDDEELNNKFLEFLSMRKKIRKPVRTDRALKALLKKLHELSGGDVGLMKQIIDQSLDKEWLGLFEL	-0.889
HMRYNPETTAGRRGLIIKMLDEYGQVNVNELSRYFNVSEVTVRNDLAYLERKNLLIRARGGAIKTE	-1.91
HMRYWVKSETDFLIENRGKYSYQEFADMLGRSYAVVYDKMHQLKIDYTKEELEIFDEKHKAQMREKQQR	-1.96
HMSAAPVGPWALSEFLDAVEKDSVERVTFDDAGKALVAVDADGGRHRVEILPSEGPEILAALRKHSVQFA	0.181
HMSADEVSQQLTSEQTKSKSYQALLQAYAAYQQKSFDDAALELQNVQQDVLSDSQKTIYNTISQAVNS	0.26
HMSADISIGYNIPKGSVTVSAGGRTLQEGIDYDINYDLGTIKITNQAILNAGLPVQVNFENNAS	0.849
HMSADLVYLRKRLQDAIAQLPENMRTAYTLFQIANRSIREISELTGASESLVKVRIHRAKGKLQKQLEDLK	-1.43
HMSAEDYLERIHELIESKGTAHVADIAQSLGVGKPSVTSMVQKLADEGYLNYEKYRSLTLTDSGRSIA	0.165
HMSAEDYMEMIYRLSQENGFTRVNDLASALNVQPPSVTRMIQKLAELNLIKYEKYGVIMLQPYGIEVGRSL	-2.65
HMSAEGPALADWVVRDAHSIGAKITNSVAQLLIDRVGHNQQLLHNELQKLALVQTDISAELVKTMSHY	-0.643
HMSAETRSWTDAQGNQTQAVLRGFDGGDVLLQNAAGKTLRVPVKNLSEDDQRYVVLNISTLID	-0.0549
HMSAITLDQARAIALDHAGISEGDATFVKEQTGTSSYEIEFYSGSNEYDYEIDKATGAILNVDR	0.22
HMSALAEELIKKNQAMILTIKPRDTIWGIANRFQSPPSEKFINQIIELNQVDPYRLRIGQDLLIPLN	-0.984
HMSALTDQQQRVLELVASGLVYKEVAAALSISEPTVKYHMGNILTRLHVKNRAQAIAAARQQGLL	-1.58
HMSAMKYTSEVFQRLSRGQFISSNSIDAETRAIYSDIEENQQEYEDYFSKIDFLLSSGDGFYYFSRK	-2.38

Sequence	soluble fraction (log2)
HMSAMSPTEVGERLRLAREAVRMTQKQAADAISVARTTLVAIEQGQRRVRIDELQQLAKTYGVSVNAILR	-2.27
HMSAPAKKPKIKVDLSKVHAGTIVRHKGYGLGQVKGIDGAIIVVTFDGVDKKFQFPGGFENGFLFLTED	-1.48
HMSAPLKELGNDPESGKPIVVKDGRFGAYVTDGETNATLRKTDAVESLTPERAAELLAEKRAKG	0.493
HMSAPTAFSERELELLAGMRRGASNKAMAEQLFISVNTVKYHRANLMRKLGARDRNEALEVAARLG	0.404
HMSAQDLIVKTDATQVEARVLEISPEQIRYKRFSNPDGPTYVLPVDAVDYIRYANGETDSFR	0.076
HMSASAIYVRPKDVKEPEEVADYLSGVLELDREKLYKKITDKSQWIALIERKVDNDIAFDIRNKKFKGIEI	-0.301
HMSASIAEGTVIMLENTTNIRSGMSEDSSKVGTAYAGEKVTVVMSYAEGWTKVKWNGETGYIKTALLQL	-0.607
HMSASNSIDFANRMIYNKNQVAVFNFGKHMGRPVLEVLKSDPSYYDWMMKGDFPMDTKRKLTEIKLQGF	-0.793
HMSATPQRMTIIDALDSSGKNLSAYELLDLLNDKGQLFNISTIYRVLDFWIEMGIVHKINSSNTYL	0.15
HMSATQDAAIAVRIRDILSELDGYEDVTVTVTSGIVTMRGTTLDSEKIARLNDLTGRVEGVVAIENSVTET	-0.207
HMSAVIGTATVTTSSGSLNLRESASLYSRVIRTIPRGATVDVLSRDTSWSRVRYAGSEGYVLNQYLTFQT	-2.1
HMSDAGMNQIGDMFRAPDLMAKLAMNPATREYVSQPDFLAMMEEVKRNPSALNNHLRDPRMMNVLSVAM	-0.271
HMSDAPLLSIRSLAVAFDGTRVVDGVSFDVARGEVVALVGESGSGKTVTGLSLLDLVPPPGRRVGGEV	0.278
HMSDDAVVRMRVPEDALGLSLRETDFRQRFGVYVLAIETRDGKLLAPPDPQRPLGKDDVLVVIQKR	-0.847
HMSDDLLTGLDAYSRGDWTTATASFERVLTTADPNNRTEALYWLVMSETSAQNYQRALNYANTFL	-0.707
HMSDDSTIVELLASSLRRDIAFGTLLPDQKLKLNELRTRYGGSIHSMRETLRILSAEGLVEATAQRGFRVT	0.0731
HMSDEIQLQFIQISIFKDHPWADMQIKDMNIIPDLLIVMILRDGERIIPNGNTRIMPGDMVIITAMSANT	-2.54
HMSDESALIAAIEKAIAAQPETAEKVRNGHLPAAGALIGSVMKETKGQADAARVRELLLGLLGQ	0.441
HMSDESRAEIVSSAKRLFQQYGYKKTTVSDIAKAMGKVKSAIYYYFPDKESLLRAVIDEEVG	0.0318
HMSDFEASDPALLREGMRVQHLNFGKGTVITIEGAGANKKASVAFDGVGTKQLMLRFARLKIIYE	-2.59
HMSDFKDIILKLRNEQGFTQEKLADVLGTSKSTVGMWEMGVRFPSKELYEAIADYFNVDIDYLYGRTDIR	-0.83
HMSDGYETLVNMAKPFLNNSKQITENDITDAVNTVSVMLKKRYDMTDEDIRKAVSELLHFYA	-0.305
HMSDIDHIAGRRIRQARLNAGMTLETLASQAGISKALLSKIENSKVSSPLATFSKISKVLGVPLSDLLKE	-0.748
HMSDILALMPGTIKQILVAPGDSVKRGQTVIIMESMKMELTIAAHRDGVVKRIPVEQGGQVEKGMRLLELE	-1.86
HMSDIPEGYMSRVQLGDEWGIHLATFDKAVIAVKEKLGTVVFIDKSNNTTAGYSPEQQTIIYDWLAEN	-2.22
HMSDKNVYGKYKNVFLSDEEFSELKQFYPNDWSDRIETLSEGIELKGYKYKNYLLAIKKWAEYEGQKAD	-0.47

Sequence	soluble fraction (log2)
HMSDKPIFIDTAGIAALSAIGFSKYQATIIFNYIKKGGAIYTVKDLAKIYSIDQKTIDLTQSKIIFS	0.365
HMSDKPRYYINGNTLFISDKSVKKVLFSDLSGRSILHTTETAINIATFRGAHILTVIYTDGSTKSEVIF	-1.47
HMSDLLYAHPTEKGFQLVNVTQKVVMVILKTAAPNVYTVKGKNAIVFKEGNSWFYSENHNKKLLNIK	-3.18
HMSDLQTGDINQDGTVDEKDLSLLHSYNLELIKTISNAADLNEDGVINGLDEAYLKRLFLQNSDP	-0.122
HMSDLTEVIVKFSGDIQPIRQDLDAQVEILLKGYAIITLSPNKIGRLYSYPQIESIEIPKNLYI	-2.73
HMSDPASLQRRLMSDPELTARILDSPFTRSLLDDPNLLRQMVNANPQLRRAMDANPQLRHAL	-0.267
HMSDPEAFIRQTVAAAEPEGIALSVLGKRVRGKFRTFKLRDLGYAQFRPYLGDLDGIKVEQRDGQSYARLD	-1.03
HMSDPSRKADFIAALSSLGGSAGNGKLREQLGWDEPTYDAVKQTLLDEGAITNGRGRGGSVALAG	0.976
HMSDPTDRLVLEAALKALGEEERQVVLLHAASGLKHREIARDLGLPLSTVLSRYSRALKKLQRYLTEEGVH	-1.2
HMSDPVDDLLLRISQQAGVARGQLVAELNMLVQDRFGGNLRHEAAAVLMAKRYGIEFRDLLPALREHLVKN	-0.804
HMSDPVKQVAMRILDLREISDYTVDKMAEVLNVPVEEYRKYESGEVDMPISFLVKIGEVFHVDMTELLTG	-1.55
HMSDQTYVKDPETGEIFRVHKRVWETGEFWRDPVWGNILGGVERGSELERLLREEGWRPLQQSLEGFPEQ	-0.284
HMSDRESYGRYRNVSLTLSEYESLKNEYPLYADKYIERLSEYMETAGKHYNNHYATILSWLSKDIK	-0.201
HMSDSGLPLPRFVSLGDDRVNARAGPGFRFPINWVYLRKNFPVEVIDEFGHWRRIKDIDGIEGWIHLSML	-0.793
HMSDTSELESIIAQIIEDNPKSIEDIGAGNQKAYGFLTGQVMKATKGQANPQVANKIIRELVARKLE	≥ 1.04
HMSDTVDITKLGIAGKTKEAAEALLKENGFSVESKEENSDTIEKGKVISYSPTKPKNGDRITLIVSSGKK	0.294
HMSEDTYNTLTKGTRVYNGVDYGAKYGYNPLYYFLNYNDLRIAYGADPAKLVEHYALFGIKENRVANRQIT	-1.33
HMSEEELETSGLVKRSAKGNLYDIFRHRVMVPIIDVRGAIIAFGGRVLDDSKPKYINSPETMVY	-0.0708
HMSEEQLKAFLEKVQGDTSLQEKLKAAADANAVVEIAKEAGFSISADDLKNAQSELSEEELE	-0.00468
HMSEEVDVPDLVGMQLEEAEKSLEPLGLKLKIAKEIPNSEFEKGKIVDQKTKAGEKVKTGYTIEVTVSSG	-0.126
HMSEFAYPISLNGKTKFNLALSLALTKEEIEKEVLANADVQKFLNGQTPKKLIVVPGKIVNVV	-0.386
HMSEGEMSQWIIAQAKQQGGGFQPDAARLLGSYVGNNTLRARQEIDKLLTYVGPSRVVTPEDVVLLTA	-0.23
HMSEHKFIVPEEFNLKRLDQTVAAQFEKISRTKISKIIKSSLLKVNDKVVTDQSIKIKQDDVITFTEIKDQ	-0.421
HMSEKRLHLVVDESDVNTRIDKYIADELDGYSRSFIQKLIKDNNVLVNGRAVKPNYNIGISDNIDIVLPKL	0.0186
